Data as given in the supplement of paper PMC7125110.
± gives the standard error. This sample holds only a part of the variants without activity.

B1: glmS ribozyme (parent)
chain: AUAAAAGCGCCAGAACUACAGAAAUGUAGUUGACGAGGAGGAGGUUUAUCGAAUUUUCGGCGGAUGCCUCCAAA

Variants of: B1
Experiment: self-cleavage kobs at 10000 uM GlcN6P; higher = faster cleavage; RNA array
Details: with glucosamine-6-phosphate
Summary of the method: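 A hybridised Cy3 probe tracked barcoded ribozyme variants, transcribed in situ by E. coli RNA polymerase on sequenced MiSeq chips, at 37 °C. The variants received 40 μM to 10 mM glucosamine-6-phosphate in HEPES/KCl/Mg(OAc)2 buffer. kobs came from decay fits and kcat and KM from weighted Michaelis–Menten fits.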

U31C G40C U54C U56A A64U and G7A U31C C50U U65G cannot be ordered by “self-cleavage kobs at 10000 uM GlcN6P” value: < 1e-05 s⁻¹ for the first, < 1e-05 s⁻¹ for the second.

Compared with A36U U49A A53U, A14G G32A A52G is 11-fold higher in “self-cleavage kobs at 10000 uM GlcN6P” value: 3.89e-05 ± 9.3e-06 s⁻¹ for the first, 0.000409 ± 0.00011 s⁻¹ for the second.

First: A39G U46G
Second: A33G G37U U45C G62U
The “self-cleavage kobs at 10000 uM GlcN6P” value of the first is higher: 0.018 ± 0.0054 s⁻¹ for the first, < 1e-05 s⁻¹ for the second.

First: A15U U30G A48U A53G
Second: C16U G29U C67G
The “self-cleavage kobs at 10000 uM GlcN6P” value of the first is 2.6-fold lower: 0.000112 ± 3.6e-05 s⁻¹ for the first, 0.000292 ± 8.5e-05 s⁻¹ for the second.

Going from G26U A53C to C8A G29C U46A, the “self-cleavage kobs at 10000 uM GlcN6P” value falls from 0.00559 ± 0.0013 s⁻¹ to < 1e-05 s⁻¹.

Going from C11U A39G C58G to C10U G38U U46A C58U, the “self-cleavage kobs at 10000 uM GlcN6P” value falls from 7.12e-05 ± 1.7e-05 s⁻¹ to < 1e-05 s⁻¹.

Going from A15G G43A C58A to A12C C16A C67U, the “self-cleavage kobs at 10000 uM GlcN6P” value rises from < 1e-05 s⁻¹ to 0.000164 ± 3.3e-05 s⁻¹.

Going from G32A U57C G62A C67G to U31G U55G U69G, the “self-cleavage kobs at 10000 uM GlcN6P” value rises from < 1e-05 s⁻¹ to 6.94e-05 ± 1.1e-05 s⁻¹.

G13A G44U G62U C71G and A36C A39U U55A cannot be ordered by “self-cleavage kobs at 10000 uM GlcN6P” value: < 1e-05 s⁻¹ for the first, < 1e-05 s⁻¹ for the second.

Going from C16U G40U G66U to G38C G43C G59C, the “self-cleavage kobs at 10000 uM GlcN6P” value falls from 4.28e-05 ± 1.2e-05 s⁻¹ to < 1e-05 s⁻¹.

G43C C58G C71A and C11G A39U G44U A48C cannot be ordered by “self-cleavage kobs at 10000 uM GlcN6P” value: < 1e-05 s⁻¹ for the first, < 1e-05 s⁻¹ for the second.

Going from A14U G35A A48G U54C C70G to A48U U56A C68U, the “self-cleavage kobs at 10000 uM GlcN6P” value rises from < 1e-05 s⁻¹ to 7.52e-05 ± 1.8e-05 s⁻¹.

G13C G35U U47C A48C C61G C70U and C50A G62C cannot be ordered by “self-cleavage kobs at 10000 uM GlcN6P” value: < 1e-05 s⁻¹ for the first, < 1e-05 s⁻¹ for the second.

Compared with A14G G44C C67U, G32U C34A G37U is lower in “self-cleavage kobs at 10000 uM GlcN6P” value: 0.00278 ± 0.0013 s⁻¹ for the first, < 1e-05 s⁻¹ for the second.

Going from A14U A42G C58A to A36U G43U G63C, the “self-cleavage kobs at 10000 uM GlcN6P” value falls from 0.000409 ± 0.00014 s⁻¹ to < 1e-05 s⁻¹.

Compared with C8A A39G G41U G66U C67G, A14U U31C U46C is higher in “self-cleavage kobs at 10000 uM GlcN6P” value: < 1e-05 s⁻¹ for the first, 0.00011 ± 1.7e-05 s⁻¹ for the second.

Compared with A14C A23C, A14C G40A U47C is 15-fold lower in “self-cleavage kobs at 10000 uM GlcN6P” value: 0.0057 ± 0.0012 s⁻¹ for the first, 0.000375 ± 7e-05 s⁻¹ for the second.

First: G7C A39C C61A C67A
Second: A42G C58U
The “self-cleavage kobs at 10000 uM GlcN6P” value of the first is lower: < 1e-05 s⁻¹ for the first, 9.52e-05 ± 1.4e-05 s⁻¹ for the second.

First: G35C G37A C68G
Second: U54G C58A C71U
The “self-cleavage kobs at 10000 uM GlcN6P” value of the first is 4.7-fold lower: 4.58e-05 ± 2e-05 s⁻¹ for the first, 0.000213 ± 4.7e-05 s⁻¹ for the second.

Compared with G41C U56A G59C, G29A G66U C68U is higher in “self-cleavage kobs at 10000 uM GlcN6P” value: < 1e-05 s⁻¹ for the first, 3.63e-05 ± 1.6e-05 s⁻¹ for the second.

G7U C34G G59C and C8A A15U U47C U69A cannot be ordered by “self-cleavage kobs at 10000 uM GlcN6P” value: < 1e-05 s⁻¹ for the first, < 1e-05 s⁻¹ for the second.

A36C G38U U47C G51C and G29U G38C G44A U47C cannot be ordered by “self-cleavage kobs at 10000 uM GlcN6P” value: < 1e-05 s⁻¹ for the first, < 1e-05 s⁻¹ for the second.

First: C34U G63C C68G
Second: U56G C58U C67A
The “self-cleavage kobs at 10000 uM GlcN6P” value of the first is lower: < 1e-05 s⁻¹ for the first, 3.62e-05 ± 1.5e-05 s⁻¹ for the second.

Compared with C11G U30A U57G, G29C G40A A42G is higher in “self-cleavage kobs at 10000 uM GlcN6P” value: < 1e-05 s⁻¹ for the first, 8.98e-05 ± 2.9e-05 s⁻¹ for the second.

First: G9C C34A U55C
Second: G29A U31C U54G
The “self-cleavage kobs at 10000 uM GlcN6P” value of the first is lower: < 1e-05 s⁻¹ for the first, 0.000213 ± 6.7e-05 s⁻¹ for the second.

Compared with G9U G32U G37U, A15G U65A G66U is higher in “self-cleavage kobs at 10000 uM GlcN6P” value: < 1e-05 s⁻¹ for the first, 0.000274 ± 4.1e-05 s⁻¹ for the second.

G13A A15U A53G G60U and C8U G41U A48U C71G cannot be ordered by “self-cleavage kobs at 10000 uM GlcN6P” value: < 1e-05 s⁻¹ for the first, < 1e-05 s⁻¹ for the second.

A12C G13U C61U G62U and C8U G32A A48U A53U U55A cannot be ordered by “self-cleavage kobs at 10000 uM GlcN6P” value: < 1e-05 s⁻¹ for the first, < 1e-05 s⁻¹ for the second.
